Patent publication US20210032299A1 (Eli Lilly, published 2021)
Starred links: 1 amine or outer side, 2 acyl side, 3 side chain; linkers in the order of their positions; H or OH if unused. Non-standard residues stand in square brackets, D forms with d. Groups on a side chain read outwards from the residue. No end group written: not given here. *: point of attachment. C20 diacid = O=C(O)CCCCCCCCCCCCCCCCCCC(=O)*; γGlu = O=C(O)[C@H](CCC(=O)[*:2])N[*:1]; αMeF = C[C@](N)(Cc1ccccc1)C(=O)O; 4Pal = N[C@@H](Cc1ccncc1)C(=O)O; αMeL = CC(C)C[C@](C)(N)C(=O)O; AEEA = NCCOCCOCC(=O)O; Aib = CC(C)(N)C(=O)O

T1: human glucose-dependent insulinotropic peptide receptor (human, UniProt P48546 22-466)
T1 sequence (looked up): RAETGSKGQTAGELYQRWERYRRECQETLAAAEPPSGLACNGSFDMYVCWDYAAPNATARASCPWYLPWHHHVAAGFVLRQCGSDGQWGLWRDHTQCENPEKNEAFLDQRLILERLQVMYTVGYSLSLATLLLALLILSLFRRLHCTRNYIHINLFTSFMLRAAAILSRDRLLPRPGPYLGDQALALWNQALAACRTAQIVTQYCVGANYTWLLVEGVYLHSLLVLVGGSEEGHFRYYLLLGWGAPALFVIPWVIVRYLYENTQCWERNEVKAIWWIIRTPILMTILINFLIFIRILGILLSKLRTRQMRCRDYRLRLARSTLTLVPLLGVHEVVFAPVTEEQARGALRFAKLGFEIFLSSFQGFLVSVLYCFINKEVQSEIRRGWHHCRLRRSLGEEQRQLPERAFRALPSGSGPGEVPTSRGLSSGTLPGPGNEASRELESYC

B1: Example 59 (peptide)
peptide: Y[Aib]EGTFISDYSI[αMeL]LDKK([AEEA-AEEA-γGlu-C20 diacid])HQ[Aib]EFVE[4Pal]LLAAGPSSGAPPPS-NH2
modifications: N-terminus assumed
SMILES: CC[C@H](C)[C@H](NC(=O)[C@H](Cc1ccccc1)NC(=O)[C@@H](NC(=O)CNC(=O)[C@H](CCC(=O)O)NC(=O)C(C)(C)NC(=O)[C@@H](N)Cc1ccc(O)cc1)[C@@H](C)O)C(=O)N[C@@H](CO)C(=O)N[C@@H](CC(=O)O)C(=O)N[C@@H](Cc1ccc(O)cc1)C(=O)N[C@@H](CO)C(=O)N[C@H](C(=O)N[C@@](C)(CC(C)C)C(=O)N[C@@H](CC(C)C)C(=O)N[C@@H](CC(=O)O)C(=O)N[C@@H](CCCCN)C(=O)N[C@@H](CCCCNC(=O)COCCOCCNC(=O)COCCOCCNC(=O)CC[C@H](NC(=O)CCCCCCCCCCCCCCCCCCC(=O)O)C(=O)O)C(=O)N[C@@H](Cc1c[nH]cn1)C(=O)N[C@@H](CCC(N)=O)C(=O)NC(C)(C)C(=O)N[C@@H](CCC(=O)O)C(=O)N[C@@H](Cc1ccccc1)C(=O)N[C@H](C(=O)N[C@@H](CCC(=O)O)C(=O)N[C@@H](Cc1ccncc1)C(=O)N[C@@H](CC(C)C)C(=O)N[C@@H](CC(C)C)C(=O)N[C@@H](C)C(=O)N[C@@H](C)C(=O)NCC(=O)N1CCC[C@H]1C(=O)N[C@@H](CO)C(=O)N[C@@H](CO)C(=O)NCC(=O)N[C@@H](C)C(=O)N1CCC[C@H]1C(=O)N1CCC[C@H]1C(=O)N1CCC[C@H]1C(=O)N[C@@H](CO)C(N)=O)C(C)C)[C@@H](C)CC
B2: Example 58 (peptide)
peptide: Y[Aib]EGTFISDYSI[αMeL]LDKK([AEEA-AEEA-γGlu-C20 diacid])HQ[Aib]EFVE[4Pal]LLATGPSSGAPPPS-NH2
modifications: N-terminus assumed
SMILES: CC[C@H](C)[C@H](NC(=O)[C@H](Cc1ccccc1)NC(=O)[C@@H](NC(=O)CNC(=O)[C@H](CCC(=O)O)NC(=O)C(C)(C)NC(=O)[C@@H](N)Cc1ccc(O)cc1)[C@@H](C)O)C(=O)N[C@@H](CO)C(=O)N[C@@H](CC(=O)O)C(=O)N[C@@H](Cc1ccc(O)cc1)C(=O)N[C@@H](CO)C(=O)N[C@H](C(=O)N[C@@](C)(CC(C)C)C(=O)N[C@@H](CC(C)C)C(=O)N[C@@H](CC(=O)O)C(=O)N[C@@H](CCCCN)C(=O)N[C@@H](CCCCNC(=O)COCCOCCNC(=O)COCCOCCNC(=O)CC[C@H](NC(=O)CCCCCCCCCCCCCCCCCCC(=O)O)C(=O)O)C(=O)N[C@@H](Cc1c[nH]cn1)C(=O)N[C@@H](CCC(N)=O)C(=O)NC(C)(C)C(=O)N[C@@H](CCC(=O)O)C(=O)N[C@@H](Cc1ccccc1)C(=O)N[C@H](C(=O)N[C@@H](CCC(=O)O)C(=O)N[C@@H](Cc1ccncc1)C(=O)N[C@@H](CC(C)C)C(=O)N[C@@H](CC(C)C)C(=O)N[C@@H](C)C(=O)N[C@H](C(=O)NCC(=O)N1CCC[C@H]1C(=O)N[C@@H](CO)C(=O)N[C@@H](CO)C(=O)NCC(=O)N[C@@H](C)C(=O)N1CCC[C@H]1C(=O)N1CCC[C@H]1C(=O)N1CCC[C@H]1C(=O)N[C@@H](CO)C(N)=O)[C@@H](C)O)C(C)C)[C@@H](C)CC
B3: Example 56 (peptide)
peptide: Y[Aib]EGTFISDYSI[αMeL]LDKK([AEEA-AEEA-γGlu-C20 diacid])HQ[Aib]D[αMeF]VE[4Pal]LLAGGPSSGAPPPS-NH2
modifications: N-terminus assumed
SMILES: CC[C@H](C)[C@H](NC(=O)[C@H](Cc1ccccc1)NC(=O)[C@@H](NC(=O)CNC(=O)[C@H](CCC(=O)O)NC(=O)C(C)(C)NC(=O)[C@@H](N)Cc1ccc(O)cc1)[C@@H](C)O)C(=O)N[C@@H](CO)C(=O)N[C@@H](CC(=O)O)C(=O)N[C@@H](Cc1ccc(O)cc1)C(=O)N[C@@H](CO)C(=O)N[C@H](C(=O)N[C@@](C)(CC(C)C)C(=O)N[C@@H](CC(C)C)C(=O)N[C@@H](CC(=O)O)C(=O)N[C@@H](CCCCN)C(=O)N[C@@H](CCCCNC(=O)COCCOCCNC(=O)COCCOCCNC(=O)CC[C@H](NC(=O)CCCCCCCCCCCCCCCCCCC(=O)O)C(=O)O)C(=O)N[C@@H](Cc1c[nH]cn1)C(=O)N[C@@H](CCC(N)=O)C(=O)NC(C)(C)C(=O)N[C@@H](CC(=O)O)C(=O)N[C@@](C)(Cc1ccccc1)C(=O)N[C@H](C(=O)N[C@@H](CCC(=O)O)C(=O)N[C@@H](Cc1ccncc1)C(=O)N[C@@H](CC(C)C)C(=O)N[C@@H](CC(C)C)C(=O)N[C@@H](C)C(=O)NCC(=O)NCC(=O)N1CCC[C@H]1C(=O)N[C@@H](CO)C(=O)N[C@@H](CO)C(=O)NCC(=O)N[C@@H](C)C(=O)N1CCC[C@H]1C(=O)N1CCC[C@H]1C(=O)N1CCC[C@H]1C(=O)N[C@@H](CO)C(N)=O)C(C)C)[C@@H](C)CC
B4: Example 57 (peptide)
peptide: Y[Aib]EGTFISDYSI[αMeL]LDKK([AEEA-AEEA-γGlu-C20 diacid])HQ[Aib]EFVE[4Pal]LLAQGPSSGAPPPS-NH2
modifications: N-terminus assumed
SMILES: CC[C@H](C)[C@H](NC(=O)[C@H](Cc1ccccc1)NC(=O)[C@@H](NC(=O)CNC(=O)[C@H](CCC(=O)O)NC(=O)C(C)(C)NC(=O)[C@@H](N)Cc1ccc(O)cc1)[C@@H](C)O)C(=O)N[C@@H](CO)C(=O)N[C@@H](CC(=O)O)C(=O)N[C@@H](Cc1ccc(O)cc1)C(=O)N[C@@H](CO)C(=O)N[C@H](C(=O)N[C@@](C)(CC(C)C)C(=O)N[C@@H](CC(C)C)C(=O)N[C@@H](CC(=O)O)C(=O)N[C@@H](CCCCN)C(=O)N[C@@H](CCCCNC(=O)COCCOCCNC(=O)COCCOCCNC(=O)CC[C@H](NC(=O)CCCCCCCCCCCCCCCCCCC(=O)O)C(=O)O)C(=O)N[C@@H](Cc1c[nH]cn1)C(=O)N[C@@H](CCC(N)=O)C(=O)NC(C)(C)C(=O)N[C@@H](CCC(=O)O)C(=O)N[C@@H](Cc1ccccc1)C(=O)N[C@H](C(=O)N[C@@H](CCC(=O)O)C(=O)N[C@@H](Cc1ccncc1)C(=O)N[C@@H](CC(C)C)C(=O)N[C@@H](CC(C)C)C(=O)N[C@@H](C)C(=O)N[C@@H](CCC(N)=O)C(=O)NCC(=O)N1CCC[C@H]1C(=O)N[C@@H](CO)C(=O)N[C@@H](CO)C(=O)NCC(=O)N[C@@H](C)C(=O)N1CCC[C@H]1C(=O)N1CCC[C@H]1C(=O)N1CCC[C@H]1C(=O)N[C@@H](CO)C(N)=O)C(C)C)[C@@H](C)CC
B5: Example 55 (peptide)
peptide: YXEGTXISDYSIXLDKKHQXDFVEXLLAGGPSSGAPPPS
modifications: Aib2; Iva6; αMeL13; K17((2-[2-(2-Amino-ethoxy)-ethoxy]-acetyl)2-(γ-Glu)-CO-(CH2)18-CO2H); Aib20; 4-Pal25; C-terminal amide
B6: Example 60 (peptide)
peptide: Y[Aib]EGT[αMeF]ISDYSI[αMeL]LDKK([AEEA-AEEA-γGlu-C20 diacid])HQ[Aib]EFVE[4Pal]LLAQGPSSGAPPPS-NH2
modifications: N-terminus assumed
SMILES: CC[C@H](C)[C@H](NC(=O)[C@H](CO)NC(=O)[C@H](Cc1ccc(O)cc1)NC(=O)[C@H](CC(=O)O)NC(=O)[C@H](CO)NC(=O)[C@@H](NC(=O)[C@](C)(Cc1ccccc1)NC(=O)[C@@H](NC(=O)CNC(=O)[C@H](CCC(=O)O)NC(=O)C(C)(C)NC(=O)[C@@H](N)Cc1ccc(O)cc1)[C@@H](C)O)[C@@H](C)CC)C(=O)N[C@@](C)(CC(C)C)C(=O)N[C@@H](CC(C)C)C(=O)N[C@@H](CC(=O)O)C(=O)N[C@@H](CCCCN)C(=O)N[C@@H](CCCCNC(=O)COCCOCCNC(=O)COCCOCCNC(=O)CC[C@H](NC(=O)CCCCCCCCCCCCCCCCCCC(=O)O)C(=O)O)C(=O)N[C@@H](Cc1c[nH]cn1)C(=O)N[C@@H](CCC(N)=O)C(=O)NC(C)(C)C(=O)N[C@@H](CCC(=O)O)C(=O)N[C@@H](Cc1ccccc1)C(=O)N[C@H](C(=O)N[C@@H](CCC(=O)O)C(=O)N[C@@H](Cc1ccncc1)C(=O)N[C@@H](CC(C)C)C(=O)N[C@@H](CC(C)C)C(=O)N[C@@H](C)C(=O)N[C@@H](CCC(N)=O)C(=O)NCC(=O)N1CCC[C@H]1C(=O)N[C@@H](CO)C(=O)N[C@@H](CO)C(=O)NCC(=O)N[C@@H](C)C(=O)N1CCC[C@H]1C(=O)N1CCC[C@H]1C(=O)N1CCC[C@H]1C(=O)N[C@@H](CO)C(N)=O)C(C)C

Biological target: human glucagon receptor (human, UniProt P47871 26-477)
Assay: cell-based or functional assay

Sequence of human glucagon receptor (P47871 26-477): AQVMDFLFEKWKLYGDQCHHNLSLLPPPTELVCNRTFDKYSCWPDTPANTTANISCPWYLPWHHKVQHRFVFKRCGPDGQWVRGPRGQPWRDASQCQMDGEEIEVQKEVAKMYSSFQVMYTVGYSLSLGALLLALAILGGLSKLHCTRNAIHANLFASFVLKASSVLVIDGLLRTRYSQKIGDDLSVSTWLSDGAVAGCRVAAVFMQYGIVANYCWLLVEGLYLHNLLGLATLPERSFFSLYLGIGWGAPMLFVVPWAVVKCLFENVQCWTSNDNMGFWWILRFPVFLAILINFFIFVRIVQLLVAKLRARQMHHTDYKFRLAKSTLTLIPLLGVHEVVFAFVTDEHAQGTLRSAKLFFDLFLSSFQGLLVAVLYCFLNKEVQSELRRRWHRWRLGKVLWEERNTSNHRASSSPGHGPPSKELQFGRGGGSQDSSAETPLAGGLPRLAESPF

Binder | hGcgR cAMP Rel EC50 [nM]
B1 | > 5000
B2 | > 5000
B3 | > 5000
B4 | 886
B5 | > 5000
B6 | > 5000

Biological target: human GLP-1 receptor (human, UniProt P43220 24-463)
Assay: cell-based or functional assay

Binder | hGLP1R cAMP Rel EC50 [nM]
B1 | > 5000
B2 | > 5000
B3 | > 5000
B4 | > 5000
B5 | > 5000
B6 | 71

Biological target: T1, human glucose-dependent insulinotropic …
Assay: cell-based or functional assay

Binder | hGIPR cAMP Rel EC50 [nM]
B1 | 0.0202
B2 | 0.0183
B3 | 0.0169
B4 | 0.0177
B5 | 0.017
B6 | 0.0369
